Measured values as given in patent US20180002740.

Tested on: VanR (phosphorylated) (Streptomyces coelicolor M600)
Test: cell_activity
Settings: indirect: growth arrest about 18 h with 20 ug/ml vancomycin; 64 pM little effect

ATATCTATATGAAGCGACGTGGTCGATGAGCCGCAGCGTTTTCGCTGCGGCTCATCGACCACGTCGCTTCATATAGATATAGTTTTCT [vanH5 dumbbell decoy]
activity: 256 pM
